The source of these data is US20180009871A1 (INTARCIA THERAPEUTICS, published 2018).

For assay [1], the target named is human glucagon receptor (GCGR) (human, UniProt P47871 26-477). Nature of the assay: cell-based or functional assay.
In assay [2] the target is human GLP-1 receptor (GLP-1R) (human, UniProt P43220 24-463). Nature of the assay: cell-based or functional assay.

Where no end group is shown, it is not given here. [ ]: non-standard residue; d: D form. Aib = CC(C)(N)C(=O)O

human GLP-1 receptor (GLP-1R), sequence (P43220 24-463): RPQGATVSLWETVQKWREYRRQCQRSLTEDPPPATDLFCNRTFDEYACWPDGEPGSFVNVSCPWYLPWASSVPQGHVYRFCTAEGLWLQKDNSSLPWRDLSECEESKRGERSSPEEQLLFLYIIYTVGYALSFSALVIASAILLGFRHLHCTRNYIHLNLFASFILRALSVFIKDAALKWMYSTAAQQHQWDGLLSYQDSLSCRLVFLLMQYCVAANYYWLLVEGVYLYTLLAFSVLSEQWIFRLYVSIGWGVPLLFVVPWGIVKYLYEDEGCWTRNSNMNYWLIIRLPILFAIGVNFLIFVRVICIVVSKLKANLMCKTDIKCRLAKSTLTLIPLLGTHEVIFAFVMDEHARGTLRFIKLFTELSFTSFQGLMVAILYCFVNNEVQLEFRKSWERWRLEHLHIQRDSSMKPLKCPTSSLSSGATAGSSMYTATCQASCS

B1: Compound A32 (peptide)
peptide: YTHGTFTSDYSKWLD[Aib]KRAQEFV[Aib]WLEDEPSSGAPPPS-OH
modifications: N-terminus assumed
SMILES: CC(C)C[C@H](NC(=O)[C@H](Cc1c[nH]c2ccccc12)NC(=O)[C@H](CCCCN)NC(=O)[C@H](CO)NC(=O)[C@H](Cc1ccc(O)cc1)NC(=O)[C@H](CC(=O)O)NC(=O)[C@H](CO)NC(=O)[C@@H](NC(=O)[C@H](Cc1ccccc1)NC(=O)[C@@H](NC(=O)CNC(=O)[C@H](Cc1c[nH]cn1)NC(=O)[C@@H](NC(=O)[C@@H](N)Cc1ccc(O)cc1)[C@@H](C)O)[C@@H](C)O)[C@@H](C)O)C(=O)N[C@@H](CC(=O)O)C(=O)NC(C)(C)C(=O)N[C@@H](CCCCN)C(=O)N[C@@H](CCCNC(=N)N)C(=O)N[C@@H](C)C(=O)N[C@@H](CCC(N)=O)C(=O)N[C@@H](CCC(=O)O)C(=O)N[C@@H](Cc1ccccc1)C(=O)N[C@H](C(=O)NC(C)(C)C(=O)N[C@@H](Cc1c[nH]c2ccccc12)C(=O)N[C@@H](CC(C)C)C(=O)N[C@@H](CCC(=O)O)C(=O)N[C@@H](CC(=O)O)C(=O)N[C@@H](CCC(=O)O)C(=O)N1CCC[C@H]1C(=O)N[C@@H](CO)C(=O)N[C@@H](CO)C(=O)NCC(=O)N[C@@H](C)C(=O)N1CCC[C@H]1C(=O)N1CCC[C@H]1C(=O)N1CCC[C@H]1C(=O)N[C@@H](CO)C(=O)O)C(C)C
Regarding B1, in assay [1], the “hGCGR pEC50 (cAMP)” value was found to be 12.5 pEC50. The “hGLP1 pEC50 (cAMP)” value in assay [2] was below 9 pEC50.

B2: Compound A31 (peptide)
peptide: YSHGTFTSDYSKYLD[Aib]KRAQEFV[Aib]WLEDEPESGAPPPS-OH
modifications: N-terminus assumed
SMILES: CC(C)C[C@H](NC(=O)[C@H](Cc1ccc(O)cc1)NC(=O)[C@H](CCCCN)NC(=O)[C@H](CO)NC(=O)[C@H](Cc1ccc(O)cc1)NC(=O)[C@H](CC(=O)O)NC(=O)[C@H](CO)NC(=O)[C@@H](NC(=O)[C@H](Cc1ccccc1)NC(=O)[C@@H](NC(=O)CNC(=O)[C@H](Cc1c[nH]cn1)NC(=O)[C@H](CO)NC(=O)[C@@H](N)Cc1ccc(O)cc1)[C@@H](C)O)[C@@H](C)O)C(=O)N[C@@H](CC(=O)O)C(=O)NC(C)(C)C(=O)N[C@@H](CCCCN)C(=O)N[C@@H](CCCNC(=N)N)C(=O)N[C@@H](C)C(=O)N[C@@H](CCC(N)=O)C(=O)N[C@@H](CCC(=O)O)C(=O)N[C@@H](Cc1ccccc1)C(=O)N[C@H](C(=O)NC(C)(C)C(=O)N[C@@H](Cc1c[nH]c2ccccc12)C(=O)N[C@@H](CC(C)C)C(=O)N[C@@H](CCC(=O)O)C(=O)N[C@@H](CC(=O)O)C(=O)N[C@@H](CCC(=O)O)C(=O)N1CCC[C@H]1C(=O)N[C@@H](CCC(=O)O)C(=O)N[C@@H](CO)C(=O)NCC(=O)N[C@@H](C)C(=O)N1CCC[C@H]1C(=O)N1CCC[C@H]1C(=O)N1CCC[C@H]1C(=O)N[C@@H](CO)C(=O)O)C(C)C
Turning to B2, in assay [1], the “hGCGR pEC50 (cAMP)” value was 11.7 pEC50. Moreover, the “hGLP1 pEC50 (cAMP)” value in assay [2] was below 9 pEC50.

B3: Compound A29 (peptide)
peptide: YSHGTFTSDYSKYLD[Aib]KRAQEFV[Aib]WLEDEPKSGAPPPS-OH
modifications: N-terminus assumed
SMILES: CC(C)C[C@H](NC(=O)[C@H](Cc1ccc(O)cc1)NC(=O)[C@H](CCCCN)NC(=O)[C@H](CO)NC(=O)[C@H](Cc1ccc(O)cc1)NC(=O)[C@H](CC(=O)O)NC(=O)[C@H](CO)NC(=O)[C@@H](NC(=O)[C@H](Cc1ccccc1)NC(=O)[C@@H](NC(=O)CNC(=O)[C@H](Cc1c[nH]cn1)NC(=O)[C@H](CO)NC(=O)[C@@H](N)Cc1ccc(O)cc1)[C@@H](C)O)[C@@H](C)O)C(=O)N[C@@H](CC(=O)O)C(=O)NC(C)(C)C(=O)N[C@@H](CCCCN)C(=O)N[C@@H](CCCNC(=N)N)C(=O)N[C@@H](C)C(=O)N[C@@H](CCC(N)=O)C(=O)N[C@@H](CCC(=O)O)C(=O)N[C@@H](Cc1ccccc1)C(=O)N[C@H](C(=O)NC(C)(C)C(=O)N[C@@H](Cc1c[nH]c2ccccc12)C(=O)N[C@@H](CC(C)C)C(=O)N[C@@H](CCC(=O)O)C(=O)N[C@@H](CC(=O)O)C(=O)N[C@@H](CCC(=O)O)C(=O)N1CCC[C@H]1C(=O)N[C@@H](CCCCN)C(=O)N[C@@H](CO)C(=O)NCC(=O)N[C@@H](C)C(=O)N1CCC[C@H]1C(=O)N1CCC[C@H]1C(=O)N1CCC[C@H]1C(=O)N[C@@H](CO)C(=O)O)C(C)C
As for B3, the “hGCGR pEC50 (cAMP)” value in assay [1] is 11.1 pEC50. Also, the “hGLP1 pEC50 (cAMP)” value in assay [2] is below 9 pEC50.

B4: Compound A30 (peptide)
peptide: YSHGTFTSDYSKYLD[Aib]KRAQEFV[Aib]WLEDEPSKGAPPPS-OH
modifications: N-terminus assumed
SMILES: CC(C)C[C@H](NC(=O)[C@H](Cc1ccc(O)cc1)NC(=O)[C@H](CCCCN)NC(=O)[C@H](CO)NC(=O)[C@H](Cc1ccc(O)cc1)NC(=O)[C@H](CC(=O)O)NC(=O)[C@H](CO)NC(=O)[C@@H](NC(=O)[C@H](Cc1ccccc1)NC(=O)[C@@H](NC(=O)CNC(=O)[C@H](Cc1c[nH]cn1)NC(=O)[C@H](CO)NC(=O)[C@@H](N)Cc1ccc(O)cc1)[C@@H](C)O)[C@@H](C)O)C(=O)N[C@@H](CC(=O)O)C(=O)NC(C)(C)C(=O)N[C@@H](CCCCN)C(=O)N[C@@H](CCCNC(=N)N)C(=O)N[C@@H](C)C(=O)N[C@@H](CCC(N)=O)C(=O)N[C@@H](CCC(=O)O)C(=O)N[C@@H](Cc1ccccc1)C(=O)N[C@H](C(=O)NC(C)(C)C(=O)N[C@@H](Cc1c[nH]c2ccccc12)C(=O)N[C@@H](CC(C)C)C(=O)N[C@@H](CCC(=O)O)C(=O)N[C@@H](CC(=O)O)C(=O)N[C@@H](CCC(=O)O)C(=O)N1CCC[C@H]1C(=O)N[C@@H](CO)C(=O)N[C@@H](CCCCN)C(=O)NCC(=O)N[C@@H](C)C(=O)N1CCC[C@H]1C(=O)N1CCC[C@H]1C(=O)N1CCC[C@H]1C(=O)N[C@@H](CO)C(=O)O)C(C)C
Take B4: the “hGCGR pEC50 (cAMP)” value in assay [1] stood at 10.9 pEC50. Besides, the “hGLP1 pEC50 (cAMP)” value in assay [2] was below 9 pEC50.

B5: Compound A28 (peptide)
peptide: YSHGTFTSDYSKYLD[Aib]KRAQEFV[Aib]WLEDEGPSSGAPPPS-OH
modifications: N-terminus assumed
SMILES: CC(C)C[C@H](NC(=O)[C@H](Cc1ccc(O)cc1)NC(=O)[C@H](CCCCN)NC(=O)[C@H](CO)NC(=O)[C@H](Cc1ccc(O)cc1)NC(=O)[C@H](CC(=O)O)NC(=O)[C@H](CO)NC(=O)[C@@H](NC(=O)[C@H](Cc1ccccc1)NC(=O)[C@@H](NC(=O)CNC(=O)[C@H](Cc1c[nH]cn1)NC(=O)[C@H](CO)NC(=O)[C@@H](N)Cc1ccc(O)cc1)[C@@H](C)O)[C@@H](C)O)C(=O)N[C@@H](CC(=O)O)C(=O)NC(C)(C)C(=O)N[C@@H](CCCCN)C(=O)N[C@@H](CCCNC(=N)N)C(=O)N[C@@H](C)C(=O)N[C@@H](CCC(N)=O)C(=O)N[C@@H](CCC(=O)O)C(=O)N[C@@H](Cc1ccccc1)C(=O)N[C@H](C(=O)NC(C)(C)C(=O)N[C@@H](Cc1c[nH]c2ccccc12)C(=O)N[C@@H](CC(C)C)C(=O)N[C@@H](CCC(=O)O)C(=O)N[C@@H](CC(=O)O)C(=O)N[C@@H](CCC(=O)O)C(=O)NCC(=O)N1CCC[C@H]1C(=O)N[C@@H](CO)C(=O)N[C@@H](CO)C(=O)NCC(=O)N[C@@H](C)C(=O)N1CCC[C@H]1C(=O)N1CCC[C@H]1C(=O)N1CCC[C@H]1C(=O)N[C@@H](CO)C(=O)O)C(C)C
In the case of B5, the “hGCGR pEC50 (cAMP)” value in assay [1] is 12.2 pEC50. The “hGLP1 pEC50 (cAMP)” value in assay [2] was below 9 pEC50.

B6: Compound A33 (peptide)
peptide: YSHGTFTSDHSKWLD[Aib]KRAQEFV[Aib]WLEDEPSSGAPPPS-OH
modifications: N-terminus assumed
SMILES: CC(C)C[C@H](NC(=O)[C@H](Cc1c[nH]c2ccccc12)NC(=O)[C@H](CCCCN)NC(=O)[C@H](CO)NC(=O)[C@H](Cc1c[nH]cn1)NC(=O)[C@H](CC(=O)O)NC(=O)[C@H](CO)NC(=O)[C@@H](NC(=O)[C@H](Cc1ccccc1)NC(=O)[C@@H](NC(=O)CNC(=O)[C@H](Cc1c[nH]cn1)NC(=O)[C@H](CO)NC(=O)[C@@H](N)Cc1ccc(O)cc1)[C@@H](C)O)[C@@H](C)O)C(=O)N[C@@H](CC(=O)O)C(=O)NC(C)(C)C(=O)N[C@@H](CCCCN)C(=O)N[C@@H](CCCNC(=N)N)C(=O)N[C@@H](C)C(=O)N[C@@H](CCC(N)=O)C(=O)N[C@@H](CCC(=O)O)C(=O)N[C@@H](Cc1ccccc1)C(=O)N[C@H](C(=O)NC(C)(C)C(=O)N[C@@H](Cc1c[nH]c2ccccc12)C(=O)N[C@@H](CC(C)C)C(=O)N[C@@H](CCC(=O)O)C(=O)N[C@@H](CC(=O)O)C(=O)N[C@@H](CCC(=O)O)C(=O)N1CCC[C@H]1C(=O)N[C@@H](CO)C(=O)N[C@@H](CO)C(=O)NCC(=O)N[C@@H](C)C(=O)N1CCC[C@H]1C(=O)N1CCC[C@H]1C(=O)N1CCC[C@H]1C(=O)N[C@@H](CO)C(=O)O)C(C)C
As to B6, the “hGCGR pEC50 (cAMP)” value in assay [1] was determined as 10.9 pEC50. Moreover, the “hGLP1 pEC50 (cAMP)” value in assay [2] is below 9 pEC50.

B7: Compound A34 (peptide)
peptide: YTHGTFTSDHSKWLD[Aib]KRAQEFV[Aib]WLEDEPSSGAPPPS-OH
modifications: N-terminus assumed
SMILES: CC(C)C[C@H](NC(=O)[C@H](Cc1c[nH]c2ccccc12)NC(=O)[C@H](CCCCN)NC(=O)[C@H](CO)NC(=O)[C@H](Cc1c[nH]cn1)NC(=O)[C@H](CC(=O)O)NC(=O)[C@H](CO)NC(=O)[C@@H](NC(=O)[C@H](Cc1ccccc1)NC(=O)[C@@H](NC(=O)CNC(=O)[C@H](Cc1c[nH]cn1)NC(=O)[C@@H](NC(=O)[C@@H](N)Cc1ccc(O)cc1)[C@@H](C)O)[C@@H](C)O)[C@@H](C)O)C(=O)N[C@@H](CC(=O)O)C(=O)NC(C)(C)C(=O)N[C@@H](CCCCN)C(=O)N[C@@H](CCCNC(=N)N)C(=O)N[C@@H](C)C(=O)N[C@@H](CCC(N)=O)C(=O)N[C@@H](CCC(=O)O)C(=O)N[C@@H](Cc1ccccc1)C(=O)N[C@H](C(=O)NC(C)(C)C(=O)N[C@@H](Cc1c[nH]c2ccccc12)C(=O)N[C@@H](CC(C)C)C(=O)N[C@@H](CCC(=O)O)C(=O)N[C@@H](CC(=O)O)C(=O)N[C@@H](CCC(=O)O)C(=O)N1CCC[C@H]1C(=O)N[C@@H](CO)C(=O)N[C@@H](CO)C(=O)NCC(=O)N[C@@H](C)C(=O)N1CCC[C@H]1C(=O)N1CCC[C@H]1C(=O)N1CCC[C@H]1C(=O)N[C@@H](CO)C(=O)O)C(C)C
Turning to B7, the “hGCGR pEC50 (cAMP)” value in assay [1] was determined as 10.3 pEC50. The “hGLP1 pEC50 (cAMP)” value in assay [2] is below 9 pEC50.
